Assay results: paper PMC7037157, “Parallel Strategy Increases the Thermostability and Activity of Glutamate Decarboxylase” (Molecules, 2020)
Substitutions are numbered along the chain they refer to. Numbers in names are those of the source.

B1: GAD (glutamate decarboxylase; GAD1407) (Levilactobacillus brevis; N193D) (protein)
chain: MAMLYGKHTHETDETLKPIFGASAERHDLPKYKLAKHALEPREADRLVRDQLLDEGNSRLNLATFCQTYMEPEAVELMKDTLEKNAIDKSEYPRTAEIENRCVNIIANLWHAPEAESFTGTSTIGSSEACMLAGLAMKFAWRKRAKANGLDLTAHQPNIVISAGYQVCWEKFCVYWDIDMHVVPMDDDHMSLDVDHVLDYVDDYTIGIVGIMGITYTGQYDDLARLDAVVERYNRTTKFPVYIHVDAASGGFYTPFIEPELKWDFRLNNVISINASGHKYGLVYPGVGWVIWRDQQYLPKELVFKVSYLGGELPTMAINFSHSASQLIGQYYNFIRFGFDGYREIQEKTHDVARYLAKSLTKLGGFSLINDGHELPLICYELTADSDREWTLYDLSDRLLMKGWQVPTYPLPKNMTDRVIQRIVVRADFGMSMAHDFIDDLTQAIHDLDQAHIVFHSDPQPKKYGFTH
notes: pET28a(+)-GAD1407, expressed in E. coli BL21(DE3), Ni-NTA purified (His tag)
B2: GAD (glutamate decarboxylase; GAD1407) (Levilactobacillus brevis; D203E) (protein)
chain: B1 chain with D193N, D203E
notes: as for B1
B3: GAD (glutamate decarboxylase; GAD1407) (Levilactobacillus brevis) (protein)
chain: B1 chain with D193N
notes: as for B1
B4: GAD (glutamate decarboxylase; GAD1407) (Levilactobacillus brevis; S325A) (protein)
chain: B1 chain with D193N, S325A
notes: as for B1

substrate: N[C@@H](CCC(=O)O)C(=O)O; assay: initial rates; GABA dansylated, HPLC; assay type: biochemical, Levilactobacillus brevis; conditions: 0.2 mol/L HAc-NaAc buffer, pH 4.8, 10-100 mmol/L L-glutamate, standard assay 48 °C, 40 μmol/L PLP
Excerpt: initial rates; GABA dansylated, HPLC on GAD (glutamate decarboxylase; GAD1407)

Protein | Km [mM] | kcat [s⁻¹] | kcat/Km [M⁻¹ s⁻¹]
B1 | 34.35 | 138 | 4000
B2 | 26.60 | 40.2 | 1510
B3 | 39.72 | 102 | 2570
B4 | 42.39 | 176 | 4160
